Experimental data as given in patent US20180327500A1 (SYMPHOGEN A S, published 2018).

Key:
Experiment in all cases: flow cytometry on transfected HEK293 cells;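 further: antibodies applied at 50 µg/ml, binding called specific when fluorescence exceeds the mean signal on a negative control chicken or mouse MET construct plus four SD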
Mouse Blade 1-3 = target: T1, Mouse Blade 1-3
T1 construct: human/mouse chimera on transfected HEK293 cells; also called AA 25-233
Method: (§1) Cut-off values defined as the average fluorescence signal of all antibodies tested at 50 μg/ml to the negative control chicken or mouse MET construct+four standard deviations were employed to discriminate background binding from specific binding for the domain exchange or blade exchange constructs.
T1 MET ECD-SV5-GPI fusion: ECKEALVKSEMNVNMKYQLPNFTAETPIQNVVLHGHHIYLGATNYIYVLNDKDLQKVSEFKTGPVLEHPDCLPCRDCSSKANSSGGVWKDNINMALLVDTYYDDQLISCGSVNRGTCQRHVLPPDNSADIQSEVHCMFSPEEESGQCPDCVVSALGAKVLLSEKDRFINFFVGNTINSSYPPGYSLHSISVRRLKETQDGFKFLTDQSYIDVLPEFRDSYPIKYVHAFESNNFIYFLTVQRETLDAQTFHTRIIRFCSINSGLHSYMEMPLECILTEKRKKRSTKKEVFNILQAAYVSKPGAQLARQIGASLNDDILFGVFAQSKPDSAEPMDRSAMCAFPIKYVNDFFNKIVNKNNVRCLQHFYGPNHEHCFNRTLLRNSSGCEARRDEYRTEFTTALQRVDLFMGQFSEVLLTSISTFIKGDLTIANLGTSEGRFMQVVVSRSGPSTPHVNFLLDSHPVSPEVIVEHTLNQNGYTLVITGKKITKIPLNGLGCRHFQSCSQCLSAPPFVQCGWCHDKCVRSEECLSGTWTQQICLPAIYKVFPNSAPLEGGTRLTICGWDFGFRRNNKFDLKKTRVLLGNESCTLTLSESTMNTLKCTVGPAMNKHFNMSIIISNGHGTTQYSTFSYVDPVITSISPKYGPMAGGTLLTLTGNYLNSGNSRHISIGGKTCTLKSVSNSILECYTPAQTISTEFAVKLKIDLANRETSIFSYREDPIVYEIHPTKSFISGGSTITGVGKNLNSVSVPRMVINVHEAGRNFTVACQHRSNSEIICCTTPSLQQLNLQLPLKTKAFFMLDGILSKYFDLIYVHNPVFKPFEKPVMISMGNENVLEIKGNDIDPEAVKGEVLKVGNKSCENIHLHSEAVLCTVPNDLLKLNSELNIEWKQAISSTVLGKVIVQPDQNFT

LS5 = target: T2, LS5
T2 construct: human/mouse chimera on transfected HEK293 cells; also called AA 25-473
Method: as §1
T2 MET ECD-SV5-GPI fusion: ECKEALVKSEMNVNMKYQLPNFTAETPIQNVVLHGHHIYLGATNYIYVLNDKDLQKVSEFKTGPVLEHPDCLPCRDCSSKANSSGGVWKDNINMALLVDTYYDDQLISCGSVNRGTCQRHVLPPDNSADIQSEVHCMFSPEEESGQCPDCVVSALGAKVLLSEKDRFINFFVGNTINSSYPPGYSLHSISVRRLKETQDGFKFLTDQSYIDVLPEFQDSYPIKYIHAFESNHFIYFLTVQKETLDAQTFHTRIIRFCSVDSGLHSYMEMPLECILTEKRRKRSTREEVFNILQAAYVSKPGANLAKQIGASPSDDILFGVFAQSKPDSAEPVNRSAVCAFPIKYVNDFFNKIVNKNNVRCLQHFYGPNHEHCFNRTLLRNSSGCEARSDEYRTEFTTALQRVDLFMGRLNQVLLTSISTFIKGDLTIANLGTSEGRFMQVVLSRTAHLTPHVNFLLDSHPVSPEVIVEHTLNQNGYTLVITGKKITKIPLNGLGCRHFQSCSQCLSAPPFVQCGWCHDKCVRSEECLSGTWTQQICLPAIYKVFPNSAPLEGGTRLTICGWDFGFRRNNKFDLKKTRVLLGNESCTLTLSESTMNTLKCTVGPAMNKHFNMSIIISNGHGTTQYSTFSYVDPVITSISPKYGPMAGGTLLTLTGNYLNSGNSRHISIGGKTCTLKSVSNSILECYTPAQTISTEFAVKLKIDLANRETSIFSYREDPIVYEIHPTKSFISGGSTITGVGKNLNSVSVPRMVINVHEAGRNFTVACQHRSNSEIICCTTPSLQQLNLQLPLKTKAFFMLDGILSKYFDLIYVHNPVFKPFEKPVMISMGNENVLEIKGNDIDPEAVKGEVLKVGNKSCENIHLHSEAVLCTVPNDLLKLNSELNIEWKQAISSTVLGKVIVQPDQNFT

Mouse MET = target: T3, Mouse MET
T3 construct: on transfected HEK293 cells; also called murine MET ECD-SV5-GPI
Method: as §1
T3 MET ECD-SV5-GPI fusion: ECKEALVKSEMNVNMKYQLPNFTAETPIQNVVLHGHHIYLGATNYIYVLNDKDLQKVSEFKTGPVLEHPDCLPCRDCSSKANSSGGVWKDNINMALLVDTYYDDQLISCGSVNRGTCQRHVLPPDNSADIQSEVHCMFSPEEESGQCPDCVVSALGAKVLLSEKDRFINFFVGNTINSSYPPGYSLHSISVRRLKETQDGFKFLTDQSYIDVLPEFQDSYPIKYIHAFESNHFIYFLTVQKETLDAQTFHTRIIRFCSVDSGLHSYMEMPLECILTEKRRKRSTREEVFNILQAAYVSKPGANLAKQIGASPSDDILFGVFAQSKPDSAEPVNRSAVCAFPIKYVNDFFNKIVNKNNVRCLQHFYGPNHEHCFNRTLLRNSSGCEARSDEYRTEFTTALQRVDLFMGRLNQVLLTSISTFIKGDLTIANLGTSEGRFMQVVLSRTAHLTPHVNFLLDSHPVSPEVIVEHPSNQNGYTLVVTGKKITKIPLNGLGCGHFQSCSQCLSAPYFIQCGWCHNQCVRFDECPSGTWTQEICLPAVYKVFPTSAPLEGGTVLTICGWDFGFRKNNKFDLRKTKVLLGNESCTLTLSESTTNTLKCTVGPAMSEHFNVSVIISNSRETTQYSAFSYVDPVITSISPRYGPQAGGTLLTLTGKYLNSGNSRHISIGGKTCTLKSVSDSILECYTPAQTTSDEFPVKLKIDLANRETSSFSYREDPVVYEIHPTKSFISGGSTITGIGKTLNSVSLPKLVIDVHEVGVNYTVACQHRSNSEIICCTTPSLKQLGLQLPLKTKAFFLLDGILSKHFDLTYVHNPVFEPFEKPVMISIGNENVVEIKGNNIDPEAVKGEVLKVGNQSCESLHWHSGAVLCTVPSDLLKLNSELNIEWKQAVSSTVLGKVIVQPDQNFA

Measured: binding result

B1: humanized antibody 9006 (antibody, human IgG1, kappa, V domains shown)
VH: QVQLVQSGSELKKPGASVKVSCKASGYTFTNFRMNWVKQAPGQGLKWMGWINTYTGEPTYVDDLKGRFVFSLDTSVSTAYLQISSLKAEDTAVYYCARKGIARAMDYWGQGTTVTVSS
VL: DIVMTQSPDSLAVSLGERATINCKSSQSLLDSGNQKNYLAWYQQKPGQPPKLLIFGASTRESGVPDRFSGSGSGTDFTLTISSLQAEDVAVYYCQNDHSYPYTFGQGTKLEIKR
notes: also called Hu9006; hu9006
no binding (tested: 50 µg/ml): all assays above

B2: humanized antibody 9338 (antibody, human IgG1, kappa, V domains shown)
VH: QVQLVQSGAEVKKPGSSVKVSCKASGYTFTSYWMHWVRQAPGQGLEWMGYINPSSGHIENNQKFKDRVTITADKSTSTAYMELSSLRSEDTAVYYCARGRFAYWGQGTLVTVSS
VL: EIVLTQSPATLSLSPGERATLSCSASSSVSSGYLYWYQQKPGQAPRLLIYSTSNLASGIPARFSGSGSGTDFTLTISSLEPEDFAVYYCHQWSSYPFTFGSGTKLEIKR
notes: also called Hu9338; hu9338
no binding (tested: 50 µg/ml): all assays above
